Data from publication PMC7603314, “Broad-complex transcription factor mediates opposing hormonal regulation of two phylogenetically distant arginine kinase genes in Tribolium castaneum” (Communications Biology, 2020).

Substrate: N=C(N)NCCC[C@H](N)C(=O)O
Experiment: purified protein
Assay type: biochemical, Tribolium castaneum
Settings: forward reaction, 0.9 mM ATP, 20 mM MgCl2, 50 mM Tris-HCl pH 7.5, 30 °C, L-arginine varied 0.2-10 mM

B1: TcAK1 (Tribolium castaneum) (protein)
chain: MVDAAVLEKLEAGFKKLEASDSKSLLKKYLTRELFDKLKTKKTSFGSTLLDVIQSGLENHDSGIGIYAPDADSYSVFADLFDPIIEDYHGGFKKTDKHPPKDWGDVNAFGNLDPAGEFVVSTRVRCGRSLEGYPFNPCLTEEQYKEMEQKVSSTLSGLEGELKGTFYPLTGMSKEVQQKLIDDHFLFKEGDRFLQAANACRFWPTGRGIFHNDAKTFLVWCNEEDHLRIISMQMGGDLGQVYRRLVTGVNDIEKRLPFSHSDRFGFLTFCPTNLGTTVRASVHIKVPKLAANKAKLDEVAAKFNLQVRGTRGEHTEAEGGVYDISNKRRMGLTEFDAVKEMYDGISEIIKMEKEL
notes: His-tagged in pQE-30-XA, E. coli M15, Ni-NTA; signature CP(S/T)N(I/L)GT at 270-276
B1 was tested. Which Km did it give?
Its Km is 1500 ± 20 µM.

What about the kcat of the same protein?
Its kcat is 172.7 ± 5.8 s⁻¹.

What about the kcat/Km of the same protein?
Its kcat/Km is 113000 M⁻¹ s⁻¹.

B2: TcAK2 (Tribolium castaneum) (protein)
chain: MAKAKCHNCETKCGKGKINPEVLTKLEDGFRRLATSNSQSLLKKYLTQAVFDKLKSKKTGFGSTLLDCIQSGLENPDSNIGVYAPDPEAYTVFAELFDPIIDEYHGGFKKTDQHPASTWGDLKSIGDVDPDQKYVVSTRIRCGRSLAGYPFNPCLTEAQYKEMEKKVSGTLMSLTGELKGKYYPLTGMSKRDQQQLIDDHFLFKEGDRFLQAANACRFWPTGRGIFHNTKKTFLVWLNEEDHLRIISMQKGGNVGEVYQRLVCAVEEIETKLKFSRSDRFGYLTFCPTNLGTTIRASVHIQVPKLAKDKAKLEAVANQFNLQVRGTRGEHSEAEEGVYDISNRRRLGLTEYDAVKEMHDGILKIIEMESCM
notes: His-tagged in pQE-30-XA, E. coli M15, Ni-NTA; signature CP(S/T)N(I/L)GT at 286-292
For B2, which Km is on record?
The Km was 3700 ± 40 µM.

What about the kcat of the same protein?
The kcat was 12.7 ± 0.95 s⁻¹.

And the kcat/Km?
The kcat/Km was 3500 M⁻¹ s⁻¹.
